The target of one series is T1, McMYB12b (Malus crabapple, UniProt X2EZI4 1-374).
T1 sequence: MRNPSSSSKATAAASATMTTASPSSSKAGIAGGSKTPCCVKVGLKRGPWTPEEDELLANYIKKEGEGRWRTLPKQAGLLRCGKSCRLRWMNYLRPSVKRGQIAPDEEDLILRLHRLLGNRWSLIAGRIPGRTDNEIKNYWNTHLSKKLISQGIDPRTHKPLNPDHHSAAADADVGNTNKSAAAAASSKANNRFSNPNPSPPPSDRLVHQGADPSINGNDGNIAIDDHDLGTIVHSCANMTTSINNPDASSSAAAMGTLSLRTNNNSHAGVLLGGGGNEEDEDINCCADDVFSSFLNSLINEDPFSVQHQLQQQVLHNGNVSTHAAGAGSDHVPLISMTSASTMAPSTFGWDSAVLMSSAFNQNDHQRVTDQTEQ
As to the kind of experiment: EMSA; LightShift Chemiluminescent EMSA Kit per manufacturer; 10 ug protein, 25 pmol biotin probe, 10- to 1000-fold competitor; buffer, salt, pH and temperature not stated. Conditions: protein: recombinant; label: biotin; blunt. (Mobility shift assays separate free from complexed probe on a gel.)

In another series the target is T2, McMYB12a (Malus crabapple, UniProt X2EXK4 1-364).
T2 sequence: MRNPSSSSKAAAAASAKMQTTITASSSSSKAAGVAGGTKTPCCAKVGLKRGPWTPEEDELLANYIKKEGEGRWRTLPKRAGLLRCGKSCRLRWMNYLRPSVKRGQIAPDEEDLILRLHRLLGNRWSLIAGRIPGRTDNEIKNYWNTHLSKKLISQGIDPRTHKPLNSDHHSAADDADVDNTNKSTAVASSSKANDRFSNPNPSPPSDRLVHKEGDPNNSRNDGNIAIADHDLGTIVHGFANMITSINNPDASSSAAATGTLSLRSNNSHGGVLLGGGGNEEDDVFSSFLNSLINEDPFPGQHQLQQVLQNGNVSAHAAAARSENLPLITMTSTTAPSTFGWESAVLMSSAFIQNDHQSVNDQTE
The description is as above. Conditions: protein: recombinant; label: biotin; blunt.

B1: proMcANR2 probe (dsDNA)
DNA 1: ATTGGGAGATATGTGCTCGTTTTAGAGTGCTTTTAAAATAACTGAAAAC
DNA 2: GTTTTCAGTTATTTTAAAAGCACTCTAAAACGAGCACATATCTCCCAAT
B1: the binding result with McMYB12b and in the series with McMYB12a was “binds” in each case.

B2: proMcANS probe (dsDNA)
DNA 1: AGATCATTGCTCCAACTGGCTAAAATTAAGTGACCATTACTATAAT
DNA 2: ATTATAGTAATGGTCACTTAATTTTAGCCAGTTGGAGCAATGATCT
Turning to B2, the binding result with McMYB12b and with McMYB12a was “binds” each time.

B3: proMcLAR1 probe (dsDNA)
DNA 1: GGACAGAAATTATCCATACACCCTTTTCGTTAATGTTGCAAACTGAGT
DNA 2: ACTCAGTTTGCAACATTAACGAAAAGGGTGTATGGATAATTTCTGTCC
Turning to B3, the figures for the binding result with McMYB12b and with McMYB12a were “binds” and “no binding”, respectively.

B4: proMcANR1 probe (dsDNA)
DNA 1: ATTCTGAGTACTGTAACCTAAGTTGAAGTTGAATAATTGACGTCGTC
DNA 2: GACGACGTCAATTATTCAACTTCAACTTAGGTTACAGTACTCAGAAT
Turning to B4, the binding result in the series with McMYB12b and with McMYB12a was “binds” each time.

B5: proMcCHS probe (dsDNA)
DNA 1: GCAACTCCTCCCAACTGTGTGGATCAAGCCACATACCCCGACTATTACT
DNA 2: AGTAATAGTCGGGGTATGTGGCTTGATCCACACAGTTGGGAGGAGTTGC
For the molecule B5, the binding result with McMYB12a was “binds”.

B6: proMcLAR2 probe (dsDNA)
DNA 1: AAGTATGGTATAAACACAGACTAAGCCTCATTATCATATCCATATCAT
DNA 2: ATGATATGGATATGATAATGAGGCTTAGTCTGTGTTTATACCATACTT
B6: the binding result in the series with McMYB12b and in the series with McMYB12a was “binds” each time.

Source of the values: PMC5334656, “McMYB12 Transcription Factors Co-regulate Proanthocyanidin and Anthocyanin Biosynthesis in Malus Crabapple”.
